Assay [1] has as its target T1, 18-mer TREM2 peptide (148-165) (Homo sapiens, UniProt Q9NZC2).
T1 chain: ESFEDAHVEHSISRSLLE
Description: crystal structure.

Assay [2] addresses these 4 clones (3.10C2, 3.27H7, 3.18E5 and 3.50G1), SPR screening. Description: SPR.
A further assay addresses T2, TREM2 peptide 149-168 (Homo sapiens, UniProt Q9NZC2, biotinylated at the amino-terminus).
T2 chain: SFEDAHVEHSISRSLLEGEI
The assay can be described thus: ELISA. Background: ELISA stands for enzyme-linked immunosorbent assay.

Assay [3] addresses T3, peptide with the entire TREM2 stalk region (Homo sapiens, UniProt Q9NZC2, biotinylated at the amino-terminus).
T3 chain: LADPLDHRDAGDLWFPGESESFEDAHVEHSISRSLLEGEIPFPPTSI
The assay can be described thus: ELISA.

The target in assay [4] is T4, TREM2 peptide 149-161, wild type (Homo sapiens, UniProt Q9NZC2).
T4 chain: SFEDAHVEHSISR
Description: BLI.

The term Kd denotes the equilibrium constant for the complex coming apart.

B1: huPara.09 Fab fragment (Fab, V domains shown)
VH: EVQLVESGGGLVQPGGSLKLSCATSGFPFSNVWLHWVRQASGKGPEWVAHIKAKSDNYATYYAESVKGRFTISRDDSKNTVYLQMNSLKTEDTAVYYCTDILEYWGQGTLVTVSS
VL: DVVMTQSPLSLPVTPGEPASISCRSSRSLLTSKGITSLYWYLQKPGQSPQLLIYRMSNLASGIPDRFSGSGSGTDFTLKISRVEAEDVGVYYCAQFLVYPYTFGPGTKVEIK
Take B1: the binding result in assay [1] was “binds”.

B2: human TREM2 extracellular domain (ECD) (domain or fragment)
chain: HNTTVFQGVAGQSLQVSCPYDSMKHWGRRKAWCRQLGEKGPCQRVVSTHNLWLLSFLRRWNGSTAITDDTLGGTLTITLRNLQPHDAGLYQCQSLHGSEADTLRKVLVEVLADPLDHRDAGDLWFPGESESFEDAHVEHSISRSLLEGEIPFPPTS
For the molecule B2, the Kd in assay [2] is 0.14 to 0.67 nM.

B3: antibody Para.09 (IgG, with the light chain of 3.10C2) (antibody, V domains shown)
VH: EVQLVETGGSLVQPGKSLRLTCATSGFPFSNVWLHWVRQSPEKHPEWVAHIKAKSDNYATYYAESVKGRFTISRDDSKSSVFLQMNSLKEEDTAIYYCTDILEYWGQGTLVTVSS
VL: DTVLTQAPLSLSVTPGESASISCRSSKSLLGVRDITSLYWYLQKPGKSPQLLIYRMSNLASGVPDRFSGSGSETDFTLKISEVETEDVGVYYCAQFLRYPYTFGPGTKLELK
With B3, the binding result (with TREM2 peptide 149-168; in assay [3]) was “binds” throughout.

B4: Fab fragment of antibody Para.09 (Fab, V domains shown)
VH: EVQLVETGGSLVQPGKSLRLTCATSGFPFSNVWLHWVRQSPEKHPEWVAHIKAKSDNYATYYAESVKGRFTISRDDSKSSVFLQMNSLKEEDTAIYYCTDILEYWGQGTLVTVSS
VL: DTVLTQAPLSLSVTPGESASISCRSSKSLLGVRDITSLYWYLQKPGKSPQLLIYRMSNLASGVPDRFSGSGSETDFTLKISEVETEDVGVYYCAQFLRYPYTFGPGTKLELK
For the molecule B4, the binding result in assay [4] is given as “binds”.

B5: Fab fragment of antibody 3.10C2 (Fab, V domains shown)
VH: EVQLVETGGSLVQPGKSLKLTCATSGFPFSNVWMHWVRQSPEKQLEWIAHIKAKSDNYATYYAESVKGRFTISRDDSKTSIYLQMNSLKEDDTAIYYCTGLDYWGQGVMVTVSS
VL: DTVLTQAPLSLSVTPGESASISCRSSKSLLGVRDITSLYWYLQKPGKSPQLLIYRMSNLASGVPDRFSGSGSETDFTLKISEVETEDVGVYYCAQFLRYPYTFGPGTKLELK
Take B5: in assay [4], the binding result is recorded as “binds”.

The values are drawn from publication PMC11437124 (Nature Communications, 2024).
